Reference: the supplement of paper PMC9170038

Test system: MS2 coat protein
Experiment: apparent KD of MS2 coat protein; designed switch direction (-1 OFF switch, 1 ON switch): -1; higher = weaker reporter binding
How it was run: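 Stalled E. coli RNA polymerase transcribed designed RNA switches on Illumina chips, which were then titrated with SNAP-549-labelled MS2 coat protein, doubling from 0.7 or 1.5 nM to 3 µM. Steps lasted from 0.8–1.5 h at the lowest concentration to 10–20 min at the highest. The apparent KD is each design's median over clusters of curve-fitted normalised fluorescence.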

[1] = Eterna round: R95, input ligand: FMN 200 uM
[2] = Eterna round: R95, input ligand: microRNA oligo, concentration not stated
[3] = Eterna round: R95, input ligand: none
[4] = input ligand: microRNA oligo, concentration not stated

## AGUACUAACACGGUAGUGUUAGUACAAUAAGCUUGUGAAACAUGAGGAUCACCCAUGUCCUCAUAAGCUCGUCUUAU [salish99_TOv2_r3_057] (puzzle: Sensor v3, turn-off variant 2)
[1]
  apparent KD of MS2 coat protein: 0.0176 µM
[2]
  apparent KD of MS2 coat protein: 0.37 µM
[3]
  apparent KD of MS2 coat protein: 0.0153 µM

## CCCGCAGGUUUUUUGCUCGACAUGAGGAUCACCCAUGUUGUAUGGGUUGUGUGUGUGUGGUGCAUAUAUAUGGUCCU [-25.6, -47.7 kcal, A 16%] (Eterna round: R97, puzzle: Sensor, turn-off variant 1)
Input ligand: FMN 200 uM
  apparent KD of MS2 coat protein: 0.427 µM
Input ligand: none
  apparent KD of MS2 coat protein: 0.655 µM

## AAGAAACAUGAGGAUCACCCAUGUGAGGAUAUGUAAAAGAAAAUAAAAUAAAUAAUAAACAGAAGGCACAAAGG [Mat - Mod of Hog D18] (puzzle: Exclusion 1)
[1]
  apparent KD of MS2 coat protein: 0.0582 µM
[2]
  apparent KD of MS2 coat protein: 0.0336 µM
[3]
  apparent KD of MS2 coat protein: 0.0409 µM

## CCCGGGCGAGGAUAUACAUGAGGAUCACCCAUGUUGGGCUAGUUGGUGGCUCCUCGCGGUAGAAGGCGCACGCG [Edna] (puzzle: Exclusion 3)
[1]
  apparent KD of MS2 coat protein: 0.123 µM
[2]
  apparent KD of MS2 coat protein: 0.0645 µM
[3]
  apparent KD of MS2 coat protein: 0.0746 µM

## AAAAGAACAGGAUAUUCGUGAAAUAACAUGAGGAUCACCCAUGUUAACGCGGGUGAGAACGAAGAAGGGUUCUAAA [Ceries] (puzzle: Exclusion 5)
[1]
  apparent KD of MS2 coat protein: 0.121 µM
[2]
  apparent KD of MS2 coat protein: 0.0421 µM
[3]
  apparent KD of MS2 coat protein: 0.0614 µM

## AAUUUGCAAGCGAGAUCCCACAUGAGGAUCACCCAUGUGCUCGUCUUAUAAGGUACUGUGACGAAAGUCACGGUACC [Mat - Sensor, turn-off var - Eli Mod - D92] (Eterna round: R97, puzzle: Sensor, turn-off variant 1)
Input ligand: FMN 200 uM
  apparent KD of MS2 coat protein: 0.0164 µM
Input ligand: none
  apparent KD of MS2 coat protein: 0.0129 µM

## AGUAGAUCUACGCUUGCGUGGAUCUGCAAUGCAAGUGUUACAUGAGGAUCACCCAUGUCCUCAUUUGCUCGUCUUAU [JL turnoff v2 99.04] (puzzle: Sensor v3, turn-off variant 2)
[1]
  apparent KD of MS2 coat protein: 0.0422 µM
[2]
  apparent KD of MS2 coat protein: 0.108 µM
[3]
  apparent KD of MS2 coat protein: 0.0409 µM

## GCCCGUGGGCAAGGAUAUCCUACGCUGUUCUGGUUCGUGUCUGUCACAUGAGGAUCACCCAUGUGGGAGAAGGUGCACCAGGGU [Design 52] (Eterna round: R96, puzzle: Exclusion NG 2)
Input ligand: FMN 200 uM
  apparent KD of MS2 coat protein: 0.0135 µM
[4]
  apparent KD of MS2 coat protein: 0.0107 µM
Input ligand: none
  apparent KD of MS2 coat protein: 0.0144 µM

## GAGCUAUGAGGAUAUGCAUAUAUACGGAUUCGUGUAGUACUACAUGAGGAUCACCCAUGUAGAAGGCGUGGCAG [Mat - Exclusion 2 - Mod of JL - D77] (puzzle: Exclusion 2)
[2]
  apparent KD of MS2 coat protein: 0.0121 µM

## AGUAGUUCAGGAUAUGAUGUUAAGUACAUGAGGAUCACCCAUGUAGGUCCUGGAUUUACAUCAGAAGGGAAUAACU [JR_Ex5_Sub083] (Eterna round: R97, puzzle: Exclusion 5)
Input ligand: FMN 200 uM
  apparent KD of MS2 coat protein: 0.0604 µM
Input ligand: none
  apparent KD of MS2 coat protein: 0.0236 µM

## CGGUGCUCGUGGAAACAUGAGGAUCACCCAUGUAGAGUUAGCGAGGAUAUCGGUAACACAUAUCACGAGAAGGCGCGAACCUGA [Ex NG3 #30] (Eterna round: R96, puzzle: Exclusion NG 3)
Input ligand: FMN 200 uM
  apparent KD of MS2 coat protein: 0.0278 µM
[4]
  apparent KD of MS2 coat protein: 0.0117 µM
Input ligand: none
  apparent KD of MS2 coat protein: 0.0163 µM

## GUGUAACUACACGGGCUCAACAUGAGGAUCACCCAUGUCAUACACGCAAGCUUUCUGCUUGUCUUAUCUGUCCGUGA [Acela] (puzzle: Sensor v3, turn-off variant 1)
[1]
  apparent KD of MS2 coat protein: 0.0132 µM
[2]
  apparent KD of MS2 coat protein: 0.0125 µM
[3]
  apparent KD of MS2 coat protein: 0.0104 µM

## CCUUUGUCAGGAUAUCAGUACAGGUCGAGUUUAGACCUGUUUGAGAAGGGACAUGAGGAUCACCCAUGUAAAAC [Inzaerle] (puzzle: Exclusion 4)
[2]
  apparent KD of MS2 coat protein: 0.078 µM

## GAAUGAGAGCAGGAUAUCUUAUAAAUAUAUGAAAGAGAAGGGCUCACAUGAGGAUCACCCAUGUGGUCCUAGAU [jl-ex6-4.75 jandersonlee mod] (Eterna round: R97, puzzle: Exclusion 6)
Input ligand: FMN 200 uM
  apparent KD of MS2 coat protein: 0.443 µM
Input ligand: none
  apparent KD of MS2 coat protein: 0.0429 µM

## GGCAUAAACGAGGAUAUCGAUACGGAAACGUAUCGAGAAGGUGUAACAUGAGGAUCACCCAUGUUCCUCAAGCC [Mat - Exclusion 6 - Eli Mod - D60] (puzzle: Exclusion 6)
[2]
  apparent KD of MS2 coat protein: 0.0291 µM

## GAGUGACAUGAGGAUCACCCAUGUAAGGAUAUACGGUUGGUAGAGAGAGGGCUAAAGGGUAGAAGGUACGAAGG [JR_Exclu1_Sub055] (puzzle: Exclusion 1)
[2]
  apparent KD of MS2 coat protein: 0.0631 µM

## UAUUAGCGAGGAUAUACAUGAGGAUCACCCAUGUGAUCCUAAGGCUGAUAAAGCCUAUGUAGAAGGCGCAAAAG [jl-ex3.4.51 ViennaUCT mod] (Eterna round: R97, puzzle: Exclusion 3)
Input ligand: FMN 200 uM
  apparent KD of MS2 coat protein: 0.227 µM
Input ligand: none
  apparent KD of MS2 coat protein: 0.421 µM

## UGAUUGUUUACCAGGUUAUACAUGAGGAUCACCCAUGUAGAUCCUACGUGCACGUUAUACCGCUCGUCUUAUUCCCA [Sensor-V1 #76] (Eterna round: R97, puzzle: Sensor, turn-off variant 1)
Input ligand: FMN 200 uM
  apparent KD of MS2 coat protein: 0.0214 µM
Input ligand: none
  apparent KD of MS2 coat protein: 0.0207 µM

## AACCCUCGUGUUAGGAUAUCCAGCGUCCGGGCGAGGGAGAAGGGACAUGAGGAUCACCCAUGUUUCGAUGGACA [Xeinesed] (Eterna round: R97, puzzle: Brourd's mod of Exclusion 4)
Input ligand: FMN 200 uM
  apparent KD of MS2 coat protein: 0.0195 µM
Input ligand: none
  apparent KD of MS2 coat protein: 0.019 µM

## UAUUAGCAAGCAACUGGGUACAUGAGGAUCACCCAUGUGCUCGUCUUAUAAGGUACUGUGACGAAAGUCACGGUACC [mod--Eli] (Eterna round: R97, puzzle: Sensor, turn-off variant 1)
Input ligand: FMN 200 uM
  apparent KD of MS2 coat protein: 0.0174 µM
Input ligand: none
  apparent KD of MS2 coat protein: 0.0166 µM

## UCGAGGUCAGGAUAUACAUGAGGAUCACCCAUGUGGAAGUAAGGUAGGAGAAGAGUAGGUAGAAGGGACGAGGG [JR_Exclu3_Sub051] (puzzle: Exclusion 3)
[1]
  apparent KD of MS2 coat protein: 0.0382 µM
[2]
  apparent KD of MS2 coat protein: 0.0379 µM
[3]
  apparent KD of MS2 coat protein: 0.0463 µM

## AUCAUGUUAGGAUAUACAAGAAAAGAAAAGAAAGAAAAGAAGUAGAAGGAACAUGAGGAUCACCCAUGUAAGAA [EteRNA is fun!] (Eterna round: R96, puzzle: Exclusion 4)
[4]
  apparent KD of MS2 coat protein: 0.023 µM

## UUUAACAAGCCAGAUCCUAACAUGAGGAUCACCCAUGUGCUCGUCUGAUUUUGUACUAUCAUGUGAGUGAUAGUAUU [Level Boss var2-04] (puzzle: Sensor v3, turn-off variant 1)
[1]
  apparent KD of MS2 coat protein: 0.174 µM
[2]
  apparent KD of MS2 coat protein: 0.683 µM
[3]
  apparent KD of MS2 coat protein: 0.308 µM

## AUAGAUCGUUAGGAUAUCCAGAUGACCCUCGUUGGAGAAGGAACGACAUGAGGAUCACCCAUGUUAUAGUACUU [Eternabot (L2) Solution 66] (Eterna round: R97, puzzle: Exclusion 6)
Input ligand: FMN 200 uM
  apparent KD of MS2 coat protein: 0.0169 µM
Input ligand: none
  apparent KD of MS2 coat protein: 0.0185 µM

## CUAUCGUGAGGAUAUGACCCAUAAGCACUAAAGUAGGUGAGUCAGAAGGCACAUGAGGAUCACCCAUGUGGACC [Eternabot (L1) Solution 47] (Eterna round: R97, puzzle: Exclusion 4)
Input ligand: FMN 200 uM
  apparent KD of MS2 coat protein: 0.0598 µM
Input ligand: none
  apparent KD of MS2 coat protein: 0.0219 µM

## UAGAUGGGAGGAUAUACGUAGAUGCAGAUUCGUGUGGUGCUACAUGAGGAUCACCCAUGUAGAAGGCCCGUCUU [JL-ex2-2.24 Mayanne mod] (puzzle: Exclusion 2)
[2]
  apparent KD of MS2 coat protein: 0.0154 µM

## AGUAGUAGUAUCCGAUCCUACAUGAGGAUCACCCAUGUAGCUAGACGUGCGCGCGAUGCUCGUCAGACUACCAGAUG [salish99_TOv1_r3_047] (puzzle: Sensor v3, turn-off variant 1)
[1]
  apparent KD of MS2 coat protein: 0.159 µM
[2]
  apparent KD of MS2 coat protein: 0.198 µM
[3]
  apparent KD of MS2 coat protein: 0.276 µM

## UUAAUUAAUAAUUAAGAUCAUUACAUGAGGAUCACCCAUGUCGAGGAUAUCAGCUCGUUUAGAGCUGAGAAGGCGACAAAUUAU [ExNG3/13-B2] (Eterna round: R96, puzzle: Exclusion NG 3)
Input ligand: FMN 200 uM
  apparent KD of MS2 coat protein: 0.67 µM
[4]
  apparent KD of MS2 coat protein: 0.411 µM
Input ligand: none
  apparent KD of MS2 coat protein: 0.473 µM

## CUAAGUUGGUAAGGAUAUCCUACAUUAUUCUGACCCGUGCAAGCUACAUGAGGAUCACCCAUGUGGGAGAAGGUGCGUUAAAGU [Design 4] (Eterna round: R96, puzzle: Exclusion NG 2)
Input ligand: FMN 200 uM
  apparent KD of MS2 coat protein: 0.0237 µM
[4]
  apparent KD of MS2 coat protein: 0.0213 µM
Input ligand: none
  apparent KD of MS2 coat protein: 0.024 µM

## GUUUCACAUGAGGAUCACCCAUGUGAGGAUAUGGAUUCGAUAGAAGUAGAAGAUGGAUCCAGAAGGCGCGUGAC [JR_Ex1_Sub078] (Eterna round: R97, puzzle: Exclusion 1)
Input ligand: FMN 200 uM
  apparent KD of MS2 coat protein: 0.0353 µM
Input ligand: none
  apparent KD of MS2 coat protein: 0.0364 µM

## UAUAUGUCAGGAUAUUAGUAGUAAAUAAAUAAAAUUAUUACUGAGAAGGGACAUGAGGAUCACCCAUGUUCCUC [JR_Ex4_Sub001] (Eterna round: R97, puzzle: Exclusion 4)
Input ligand: FMN 200 uM
  apparent KD of MS2 coat protein: 0.162 µM
Input ligand: none
  apparent KD of MS2 coat protein: 0.0229 µM

## UAAGAAUACUGAGGAUAUGCUAGUUUAUCUCAGGCAGAAGGCGGACUCAACAUGAGGAUCACCCAUGUAAGACGGGUACUAGAU [Ex NG1 #14] (Eterna round: R96, puzzle: Exclusion NG 1)
Input ligand: FMN 200 uM
  apparent KD of MS2 coat protein: 0.131 µM
[4]
  apparent KD of MS2 coat protein: 0.0922 µM
Input ligand: none
  apparent KD of MS2 coat protein: 0.089 µM

## AUAAUGUAAGGAUAUCAGUCGACUAGCUUCGGCUAGUCGACUGAGAAGGUACAUGAGGAUCACCCAUGUAGAUC [E4/19-A1] (Eterna round: R97, puzzle: Exclusion 4)
Input ligand: FMN 200 uM
  apparent KD of MS2 coat protein: 0.363 µM
Input ligand: none
  apparent KD of MS2 coat protein: 0.066 µM

## CAGUACUGAGGAUAUACAUGAGGAUCACCCAUGUUCUUCGGCUAGGAUACUAGCAAAGGUAGAAGGCAGUACUG [Mat - Exclusion 3 - Eli Mod - D27] (Eterna round: R97, puzzle: Exclusion 3)
Input ligand: FMN 200 uM
  apparent KD of MS2 coat protein: 0.144 µM
Input ligand: none
  apparent KD of MS2 coat protein: 0.0187 µM
